Results: US20100119506A1 (published 2010)

What was measured:
[1] = target: T1, PAR-2 peptide (SEQ ID NO:42) coupled to Transferrin as carrier (coupled to Transferrin as carrier); assay: ELISA on peptide
T1 construct: Transferrin carrier not further described
T1 peptide: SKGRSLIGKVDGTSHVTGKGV

[2] = target: T2, PAR-4 peptide (SEQ ID NO:44); assay: ELISA on peptide
T2 peptide: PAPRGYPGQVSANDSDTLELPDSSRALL

[3] = target: labeled peptide representing the N-terminus of PAR-2 (FRET assay); assay: cell-based or functional assay
Human PAR-2 on cells [4] = target: T3, Human PAR-2 on cells (human, UniProt P55085 26-397); assay: cell binding, Fab against IgG4p of the same clone
T3 construct: also called HEK-PAR-2 (#3); human PAR-2 transfected HEK293 cells
T3 sequence: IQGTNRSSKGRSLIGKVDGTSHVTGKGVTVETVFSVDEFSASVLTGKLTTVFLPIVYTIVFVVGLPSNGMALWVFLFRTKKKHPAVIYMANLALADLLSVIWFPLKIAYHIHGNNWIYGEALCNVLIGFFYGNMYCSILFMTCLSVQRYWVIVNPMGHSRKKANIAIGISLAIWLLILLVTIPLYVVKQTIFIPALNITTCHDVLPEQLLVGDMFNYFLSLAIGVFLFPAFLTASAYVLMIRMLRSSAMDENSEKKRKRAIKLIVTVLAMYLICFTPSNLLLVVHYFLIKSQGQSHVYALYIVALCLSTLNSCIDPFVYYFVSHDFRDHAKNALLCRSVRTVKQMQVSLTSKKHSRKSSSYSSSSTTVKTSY

Human PAR-2 on cells [5] = target: T3, Human PAR-2 on cells; assay: binding of Fab to PAR-2 transfected HEK cells (HEK-PAR-2 #3)
Human PAR-2 on cells [6] = target: T3, Human PAR-2 on cells; assay: cell-based or functional assay
[7] = target: T4, FLAG-tagged PAR-2 over-expressed on HEK transfectants (Homo sapiens (Human), UniProt P55085 37-397); assay: cell-based or functional assay
T4 sequence: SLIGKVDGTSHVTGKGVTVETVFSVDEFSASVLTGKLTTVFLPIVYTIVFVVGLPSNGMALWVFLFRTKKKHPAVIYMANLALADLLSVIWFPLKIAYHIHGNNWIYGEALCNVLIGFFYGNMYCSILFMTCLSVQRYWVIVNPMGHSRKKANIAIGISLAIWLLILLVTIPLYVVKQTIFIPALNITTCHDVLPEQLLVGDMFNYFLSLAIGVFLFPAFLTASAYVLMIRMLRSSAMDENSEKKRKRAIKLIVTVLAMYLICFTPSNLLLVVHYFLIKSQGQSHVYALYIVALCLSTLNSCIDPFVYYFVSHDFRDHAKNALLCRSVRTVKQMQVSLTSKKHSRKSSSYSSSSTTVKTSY

Human PAR-2 on cells [8] = target: T3, Human PAR-2 on cells; assay: cell binding of IgG4_Pro, HEK-PAR-2 (#3)
Human PAR-2 on cells [9] = target: T3, Human PAR-2 on cells; assay: binding of IgG4p to PAR-2 transfected HEK cells (HEK-PAR-2 #3)

B1: Ab4996 IgG4_Pro (antibody, V domains shown)
VH: QVQLVESGGGLVQPGGSLRLSCAASGFTFSNHAMHWVRQAPGKGLEWVSAISHPGKFTYYADSVKGRFTISRDNSKNTLYLQMNSLRAEDTAVYYCARHGDGMDYFDFWGQGTLVTVSS
VL: DIELTQPPSVSVAPGQTARISCSGDNIGTKYVYWYQQKPGQAPVLVIYDDNNRPSGIPERFSGSNSGNTATLTISGTQAEDEADYYCQSYDSQTMVFGGGTKLTVLG
notes: IgG4_Pro (human IgG4 constant regions, Ser241Pro hinge), lambda; also called IgG4p Ab4996
[1]
  binding result: binds
[2]
  binding result: no binding
[3]
  FRET Peptide Cleavage IC50: < 30 nM

B2: Ab4994 Fab (Fab, V domains shown)
VH: QVELVESGGGLVQPGGSLRLSCAASGFTFSSYAMNWVRQAPGKGLEWVSAISYSGHLTGYADSVKGRFTISRDNSKNTLYLQMNSLRAEDTAVYYCARIQNDPMDVWGQGTLVTVSS
VL: DIELTQPPSVSVAPGQTARISCSGDNLGKKYVQWYQQKPGQAPVLVIYDDSNRPSGIPERFSGSNSGNTATLTISGTQAEDEADYYCSSWDVGSDGWVFGGGTKLTVLG
notes: Fab
Human PAR-2 on cells [4]
  Ratio of EC50 Fab / EC50 IgG: 4.8
Human PAR-2 on cells [5]
  EC50: 1.9 nM

B3: Ab5006 Fab (Fab, V domains shown)
VH: QVELVESGGGLVQPGGSLRLSCAASGFTFSSYAMNWVRQAPGKGLEWVGAISFDGMLTGYADSVKGRFTISRDNSKNTLYLQMNSLRAEDTAVYYCARIQNDPMDVWGQGTLVTVSS
VL: DIELTQPPSVSVAPGQTARISCSGDNLGKKYVQWYQQKPGQAPVLVIYDDSNRPSGIPERFSGSNSGNTATLTISGTQAEDEADYYCSSWDVGSDGWVFGGGTKLTVLG
notes: Fab
Human PAR-2 on cells [5]
  EC50: 11.9 nM

B4: Ab4997 Fab (Fab, V domains shown)
VH: QVELVESGGGLVQPGGSLRLSCAASGFTFSSYAMNWVRQAPGKGLEWVSAISYNGKLKGYADSVKGRFTISRDNSKNTLYLQMNSLRAEDTAVYYCARIQNDPMDVWGQGTLVTVSS
VL: DIELTQPPSVSVAPGQTARISCSGDNLGKKYVQWYQQKPGQAPVLVIYDDSNRPSGIPERFSGSNSGNTATLTISGTQAEDEADYYCSSWDVGSDGWVFGGGTKLTVLG
notes: Fab
Human PAR-2 on cells [4]
  Ratio of EC50 Fab / EC50 IgG: 8
Human PAR-2 on cells [5]
  EC50: 3.03 nM

B5: Ab5150 IgG4_Pro (cross-cloned: light chain of Ab4999 with heavy chain of Ab5003) (antibody, V domains shown)
VH: QVQLVESGGGLVQPGGSLRLSCAASGFTFSSYAMNWVRQAPGKGLEWVSAISYKGHLTGYADSVKGRFTISRDNSKNTLYLQMNSLRAEDTAVYYCARIQNDPMDVWGQGTLVTVSS
VL: DIELTQPPSVSVAPGQTARISCSGDNLGKKYVQWYQQKPGQAPVLVIYDDSNRPSGIPERFSGSNSGNTATLTISGTQAEDEADYYCQTWDYSSIRDETNVFGGGTKLTVLG
notes: IgG4_Pro format
Human PAR-2 on cells [6]
  FLIPR A549 cells IC50: 2.3 nM
[7]
  FLAG Cell-Based Cleavage Approx. IC50: < 1 nM
[3]
  FRET Peptide Cleavage IC50: < 30 nM
Human PAR-2 on cells [8]
  EC50: 0.3 nM

B6: Ab5003 Fab (Fab, V domains shown)
VH: QVELVESGGGLVQPGGSLRLSCAASGFTFSSYAMNWVRQAPGKGLEWVSAISYKGHLTGYADSVKGRFTISRDNSKNTLYLQMNSLRAEDTAVYYCARIQNDPMDVWGQGTLVTVSS
VL: DIELTQPPSVSVAPGQTARISCSGDNLGKKYVQWYQQKPGQAPVLVIYDDSNRPSGIPERFSGSNSGNTATLTISGTQAEDEADYYCSSWDVGSDGWVFGGGTKLTVLG
notes: Fab
Human PAR-2 on cells [4]
  Ratio of EC50 Fab / EC50 IgG: 15.3
Human PAR-2 on cells [5]
  EC50: 7.03 nM

B7: Ab4994 IgG4_Pro (antibody, V domains shown)
VH: QVQLVESGGGLVQPGGSLRLSCAASGFTFSSYAMNWVRQAPGKGLEWVSAISYSGHLTGYADSVKGRFTISRDNSKNTLYLQMNSLRAEDTAVYYCARIQNDPMDVWGQGTLVTVSS
VL: DIELTQPPSVSVAPGQTARISCSGDNLGKKYVQWYQQKPGQAPVLVIYDDSNRPSGIPERFSGSNSGNTATLTISGTQAEDEADYYCSSWDVGSDGWVFGGGTKLTVLG
notes: IgG4_Pro: variable regions fused to human IgG4 constant regions with Ser241Pro in the hinge, lambda light chain; also called IgG4p Ab4994
Human PAR-2 on cells [6]
  FLIPR A549 cells IC50: 2.2 nM
[7]
  FLAG Cell-Based Cleavage Approx. IC50: < 1 nM
[3]
  FRET Peptide Cleavage IC50: < 30 nM
Human PAR-2 on cells [8]
  EC50: 0.4 nM
Human PAR-2 on cells [9]
  EC50: 0.4 nM

B8: Ab5003 IgG4_Pro (antibody, V domains shown)
VH: QVQLVESGGGLVQPGGSLRLSCAASGFTFSSYAMNWVRQAPGKGLEWVSAISYKGHLTGYADSVKGRFTISRDNSKNTLYLQMNSLRAEDTAVYYCARIQNDPMDVWGQGTLVTVSS
VL: DIELTQPPSVSVAPGQTARISCSGDNLGKKYVQWYQQKPGQAPVLVIYDDSNRPSGIPERFSGSNSGNTATLTISGTQAEDEADYYCSSWDVGSDGWVFGGGTKLTVLG
notes: IgG4_Pro (human IgG4 constant regions, Ser241Pro hinge), lambda; also called IgG4p Ab5003
Human PAR-2 on cells [6]
  FLIPR A549 cells IC50: 2.3 nM
[7]
  FLAG Cell-Based Cleavage Approx. IC50: < 1 nM
[3]
  FRET Peptide Cleavage IC50: < 30 nM
Human PAR-2 on cells [8]
  EC50: 0.5 nM
Human PAR-2 on cells [9]
  EC50: 0.46 nM

B9: Ab5007 IgG4_Pro (antibody, V domains shown)
VH: QVQLVESGGGLVQPGGSLRLSCAASGFTFSSYAMNWVRQAPGKGLEWVSAISFSGHLTGYADSVKGRFTISRDNSKNTLYLQMNSLRAEDTAVYYCARIQNDPMDVWGQGTLVTVSS
VL: DIELTQPPSVSVAPGQTARISCSGDNLGKKYVQWYQQKPGQAPVLVIYDDSNRPSGIPERFSGSNSGNTATLTISGTQAEDEADYYCSSWDVGSDGWVFGGGTKLTVLG
notes: IgG4_Pro (human IgG4 constant regions, Ser241Pro hinge), lambda; also called IgG4p Ab5007
Human PAR-2 on cells [6]
  FLIPR A549 cells IC50: 3.7 nM
[7]
  FLAG Cell-Based Cleavage Approx. IC50: < 1 nM
[3]
  FRET Peptide Cleavage IC50: < 30 nM
Human PAR-2 on cells [8]
  EC50: 0.5 nM
Human PAR-2 on cells [9]
  EC50: 0.5 nM

B10: Ab5149 IgG4_Pro (cross-cloned: light chain of Ab4999 with heavy chain of Ab4997) (antibody, V domains shown)
VH: QVQLVESGGGLVQPGGSLRLSCAASGFTFSSYAMNWVRQAPGKGLEWVSAISYNGKLKGYADSVKGRFTISRDNSKNTLYLQMNSLRAEDTAVYYCARIQNDPMDVWGQGTLVTVSS
VL: DIELTQPPSVSVAPGQTARISCSGDNLGKKYVQWYQQKPGQAPVLVIYDDSNRPSGIPERFSGSNSGNTATLTISGTQAEDEADYYCQTWDYSSIRDETNVFGGGTKLTVLG
notes: IgG4_Pro format
Human PAR-2 on cells [6]
  FLIPR A549 cells IC50: 3.3 nM
[7]
  FLAG Cell-Based Cleavage Approx. IC50: < 1 nM
[3]
  FRET Peptide Cleavage IC50: < 30 nM
Human PAR-2 on cells [8]
  EC50: 0.7 nM

B11: Ab4997 IgG4_Pro (antibody, V domains shown)
VH: QVQLVESGGGLVQPGGSLRLSCAASGFTFSSYAMNWVRQAPGKGLEWVSAISYNGKLKGYADSVKGRFTISRDNSKNTLYLQMNSLRAEDTAVYYCARIQNDPMDVWGQGTLVTVSS
VL: DIELTQPPSVSVAPGQTARISCSGDNLGKKYVQWYQQKPGQAPVLVIYDDSNRPSGIPERFSGSNSGNTATLTISGTQAEDEADYYCSSWDVGSDGWVFGGGTKLTVLG
notes: IgG4_Pro (human IgG4 constant regions, Ser241Pro hinge), lambda; also called IgG4p Ab4997
Human PAR-2 on cells [6]
  FLIPR A549 cells IC50: 2.4 nM
[7]
  FLAG Cell-Based Cleavage Approx. IC50: < 1 nM
[3]
  FRET Peptide Cleavage IC50: < 30 nM
Human PAR-2 on cells [8]
  EC50: 0.4 nM
Human PAR-2 on cells [9]
  EC50: 0.38 nM

B12: Ab4999 Fab (Fab, V domains shown)
VH: QVELVESGGGLVQPGGSLRLSCAASGFTFSSYAMNWVRQAPGKGLEWVSTISYSSSATSYADSVKGRFTISRDNSKNTLYLQMNSLRAEDTAVYYCARIQNDPMDVWGQGTLVTVSS
VL: DIELTQPPSVSVAPGQTARISCSGDNLGKKYVQWYQQKPGQAPVLVIYDDSNRPSGIPERFSGSNSGNTATLTISGTQAEDEADYYCQTWDYSSIRDETNVFGGGTKLTVLG
notes: Fab
Human PAR-2 on cells [4]
  Ratio of EC50 Fab / EC50 IgG: 0.3
Human PAR-2 on cells [5]
  EC50: 0.06 nM

B13: Ab5005 IgG4_Pro (antibody, V domains shown)
VH: QVQLVESGGGLVQPGGSLRLSCAASGFTFSSYAMNWVRQAPGKGLEWVSTISYSSSATSYADSVKGRFTISRDNSKNTLYLQMNSLRAEDTAVYYCARIQNDPMDVWGQGTLVTVSS
VL: DIELTQPPSVSVAPGQTARISCSGDNLGKKYVQWYQQKPGQAPVLVIYDDSNRPSGIPERFSGSNSGNTATLTISGTQAEDEADYYCQSWALVGSSESNVFGGGTKLTVLG
notes: IgG4_Pro (human IgG4 constant regions, Ser241Pro hinge), lambda; also called IgG4p Ab5005
Human PAR-2 on cells [6]
  FLIPR A549 cells IC50: 2.5 nM
[7]
  FLAG Cell-Based Cleavage Approx. IC50: < 1 nM
[3]
  FRET Peptide Cleavage IC50: < 30 nM
Human PAR-2 on cells [8]
  EC50: 0.1 nM
Human PAR-2 on cells [9]
  EC50: 0.06 nM

B14: Ab5007 Fab (Fab, V domains shown)
VH: QVELVESGGGLVQPGGSLRLSCAASGFTFSSYAMNWVRQAPGKGLEWVSAISFSGHLTGYADSVKGRFTISRDNSKNTLYLQMNSLRAEDTAVYYCARIQNDPMDVWGQGTLVTVSS
VL: DIELTQPPSVSVAPGQTARISCSGDNLGKKYVQWYQQKPGQAPVLVIYDDSNRPSGIPERFSGSNSGNTATLTISGTQAEDEADYYCSSWDVGSDGWVFGGGTKLTVLG
notes: Fab
Human PAR-2 on cells [4]
  Ratio of EC50 Fab / EC50 IgG: 19.3
Human PAR-2 on cells [5]
  EC50: 9.66 nM
